Results as given in US20220259289A1 (Janssen / Centocor, published 2022).
Where a chain is given by its changes, count along the chain named.

B1: ISOP193BR9P1B10 (designed binder, not shown: small tags and cut ends)
chain: LPAPKNLVVSRVTEDSARLSWAWNRHDFDSFLIQYQESEKVGEAIVLTVPGSERSYDLTGLKPGTEYTVSIYGVHWTVLRPFIDSNPLSAIFTT
B2: ISOP193ER9P1G11 (designed binder, not shown: small tags and cut ends)
chain: LPAPKNLVVSRVTEDSARLSWTAPDAAFDSFDIYYFEHPVGGEAIVLTVPGSERSYDLTGLKPGTEYLVTIYGVKGGYLSMPLSAIFTT
B3: ISOP193FR9P1H9 (designed binder, not shown: small tags and cut ends)
chain: B2 chain with D32E, F36D, H38L, P39R, V40N, G41P, L68A, Y78R, L79Y, M81P
B4: ISOP193ER9P1E8 (designed binder, not shown: small tags and cut ends)
chain: B2 chain with Y78E, M81K
B5: ISOP193ER9P1F7 (designed binder, not shown: small tags and cut ends)
chain: B2 chain with R18H
B6: ISOP193FR9P1A5 (designed binder, not shown: small tags and cut ends)
chain: LPAPKNLVVSRVTEDSARLSWTAPDAAFDSFEIYYIEPIAPGEAIVLTVPGSERSYDLTGLKPGTEYWVTIYGVKGCDWSDPLSAIFTT
B7: ISOP193FR9P1G4 (designed binder, not shown: small tags and cut ends)
chain: B2 chain with D32E, H38N, P39E, V40L, Y78D, L79W, M81D
B8: ISOP193HR9P1C8 (designed binder, not shown: small tags and cut ends)
chain: B2 chain with D32E, H38L, P39R, V40L, Y78G, L79Y, M81T
B9: ISOP193ER9P1A8 (designed binder, not shown: small tags and cut ends)
chain: B2 chain with F31L
B10: ISOP193ER9P1H11 (designed binder, not shown: small tags and cut ends)
chain: B2 chain with T70A, Y78V, L79F, M81H
B11: ISOP193ER9P1C8 (designed binder, not shown: small tags and cut ends)
chain: B2 chain with Y78T, L79Y, M81L
B12: ISOP120GR5P1G3 (designed binder, not shown: small tags and cut ends)
chain: LPAPKNLVVSRVTEDSARLSWTAPDAAFDSFYIRYWEFCHSGEAIELSVPGSERSYDLTGLKPGTEYFVRIVGVKGGRVSLPLGAKFTT
notes: FN3 domain (Centyrin); tested as E. coli lysate
B13: ISOP193AR9P1B10 (designed binder, not shown: small tags and cut ends)
chain: LPAPKNLVVSRVTEDSARLSWAFQWHIFDSFLIQYQESEKVGEAIVLTVPGSERSYDLTGLKPGTEYTVSIYGVGRHYTVYDSNPLSAIFTT
B14: ISOP193ER9P1H2 (designed binder, not shown: small tags and cut ends)
chain: LPAPKNLVVSRVTEDSARLSWTAPDAAFDSFRISYLEDVYYGEAIVLTVPGSERSYDLTGLKPGTEYHVGIHGVKGGIDSFPLSAIFTT
B15: ISOP193ER9P1A11 (designed binder, not shown: small tags and cut ends)
chain: LPAPKNLVVSRVTEDSARLSWTAPDAAFDSFAIQYQEYVAHGEAIVLTVPGSERSYDLTGLKPGTEYHVRISGVKGGGVSWPLSAIFTT
B16: ISOP193ER9P1E4 (designed binder, not shown: small tags and cut ends)
chain: B15 chain with Q34I, A40K, H41S, S72G, G78L, V79L, W81L
B17: ISOP193ER9P1B5 (designed binder, not shown: small tags and cut ends)
chain: B15 chain with F87V
B18: ISOP193GR9P1A7 (designed binder, not shown: small tags and cut ends)
chain: LPAPKNLVVSRVTEDSARLSWTAPDAAFDSFAIFYHEFANPGEAIDLPVPGSERSYDLTGLKPGTEYDVRIYGVKGGTASIPLDAEFTT
B19: ISOP193AR9P1B4 (designed binder, not shown: small tags and cut ends)
chain: LPAPKNLVVSRVTEDSARLSWRDLQYHTFDSFLIQYQESEKVGEAIVLTVPGSERSYDLTGLKPGTEYTVSIYGVGRHYTVYDSNPLSAIFTT
B20: ISOP193AR9P1G11 (designed binder, not shown: small tags and cut ends)
chain: LPAPKNLVVSRVTEDSARLSWTNEQITKYGFDSFLIQYQESEKVGEAIVLTVPGSERSYDLTGLKPGTEYTVSIYGVGRHYTVYDSNPLSAIFTT
B21: ISOP193AR9P1F9 (designed binder, not shown: small tags and cut ends)
chain: B20 chain with T22P, N23L, E24F, Q25A, I26S, T27D, K28L, Y29N, G30I

Columns and labels:
[1] = target: T1, recombinant biotinylated CD137 protein (Fc-fusion protein, R&D Systems 838-4B) (human, UniProt Q07011 24-186, biotinylated, sites not stated); test: ELISA, lysate on biotinylated CD137-Fc
T1 construct: Bought Fc fusion; also called CD137-Fc
Method: (§1) Streptavidin-coated Maxisorp plates (Nunc catalog 436110) were blocked for 1 h in Starting Block T20 (Pierce) and then coated with biotinylated CD137 (using same antigen as in panning) or negative controls (an unrelated Fc-fused recombinant protein and human serum albumin) for 1 h. Plates were rinsed with TBST and diluted lysate was applied to plates for 1 h. Following additional rinses, wells were treated with HRP-conjugated anti-Centyrin antibody (PAB25) for 1 h and then assayed with POD (Roche catalog 11582950001).

[2] = target: extracellular domain of human CD137 on the surface of CHO-K1 cells (human, UniProt Q07011 24-186); test: flow cytometry on CHO-K1 cells with human CD137 ECD
Method: Cell surface binding was analyzed via flow cytometry. Cenyrins were prepared at a maximal concentration of 500 nM in the presence of 125 nM anti His-mIgG1 antibody and then serially diluted in PBS/1% FCS buffer. Samples were then applied to approx 100 000 CHO-Kl cells expressing the extracellular domain of human CD137 on their surface. Unbound Centyrin/Antibody complexes were washed away and bound FN3 domains were detected by the addition of goat anti mouse-FITC labeled antibody. Samples were then aquired by flow cytometry. Subsequently, Mean flurescence intensity was plotted against the log Centyrin concentration and EC50 values were calculated by nonlinear regression using GraphPad Prism.

human serum albumin [3] = target: T2, human serum albumin (human, UniProt P02768 25-609); test: ELISA, negative control HSA
T2 construct: Negative control of the ELISA; also called HSA
Method: as §1
T2 sequence (P02768 25-609 limits assumed): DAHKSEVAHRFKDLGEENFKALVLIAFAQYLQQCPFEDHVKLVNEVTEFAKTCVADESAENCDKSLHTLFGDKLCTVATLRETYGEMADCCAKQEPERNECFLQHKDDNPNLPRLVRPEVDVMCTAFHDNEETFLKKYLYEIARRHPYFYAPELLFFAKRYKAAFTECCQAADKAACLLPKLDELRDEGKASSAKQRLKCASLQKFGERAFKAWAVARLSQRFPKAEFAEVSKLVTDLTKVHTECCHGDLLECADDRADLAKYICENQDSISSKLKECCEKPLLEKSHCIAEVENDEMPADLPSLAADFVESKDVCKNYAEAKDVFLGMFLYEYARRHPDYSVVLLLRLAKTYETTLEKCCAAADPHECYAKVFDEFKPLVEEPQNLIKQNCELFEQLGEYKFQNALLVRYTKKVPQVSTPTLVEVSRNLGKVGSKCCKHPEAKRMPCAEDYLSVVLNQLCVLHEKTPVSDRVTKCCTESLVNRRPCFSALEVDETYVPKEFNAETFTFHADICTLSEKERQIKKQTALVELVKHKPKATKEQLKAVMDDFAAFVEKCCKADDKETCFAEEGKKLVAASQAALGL

[4] = target: unrelated Fc-fused recombinant protein; test: ELISA, negative control Fc protein
[5] = target: human serum albumin (human) (UniProt P02768); test: ELISA, negative control HSA
human serum albumin [6] = target: T3, human serum albumin (human, UniProt P02768 25-609); test: ELISA, bacterial lysate on plate-bound antigen, luminescence
T3 construct: Negative control antigen of the screening ELISA; also called HSA
How it was run: (§2)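 Biotinylated CD137-Fc, an unrelated Fc-fusion protein or human serum albumin captured 1 h on streptavidin plates blocked in Starting Block T20; diluted bacterial lysate applied 1 h. Bound binders detected with HRP-conjugated anti-Centyrin antibody (PAB25) for 1 h, then POD substrate read-out.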
T3 sequence (P02768 25-609 limits assumed): as above

[7] = target: T4, recombinant biotinylated human CD137 protein (Fc-fusion protein, R&D Systems 838-4B) (human, UniProt Q07011 24-186, biotinylated (site not stated)); test: as above
T4 construct: Bought Fc fusion; The ELISA used the same antigen as the panning; also called CD137-Fc; biotinylated CD137; not shown: Fc part of the bought fusion protein
How it was run: as §2

[8] = target: unrelated Fc-fused recombinant protein (negative control); test: as above

human serum albumin (human), sequence (P02768 25-609 limits assumed): as above

Row | Binder | ELISA CD137 (RLU) [1] | EC50 [2] | ELISA HSA (RLU) (human serum albumin [3]) | ELISA Fc Control (RLU) [4] | ELISA HSA (RLU) [5] | ELISA HSA (RLU) (human serum albumin [6]) | ELISA CD137-Fc (RLU) [7] | ELISA Fc Control (RLU) [8]
1 | B1 | 9.73e+06 RLU | 134 nM | 1200 RLU | 2640 RLU |  |  |  | 
2 | B2 |  | 18.7 nM |  | 1440 RLU |  |  |  | 
3 | B3 | 2.42e+06 RLU | 72.8 nM | 800 RLU | 2000 RLU |  |  |  | 
4 | B4 | 1.64e+07 RLU | 17.7 nM | 480 RLU | 880 RLU |  |  |  | 
5 | B5 | 1.51e+07 RLU | 25 nM | 480 RLU | 1200 RLU |  |  |  | 
6 | B6 | 9.07e+06 RLU |  |  | 95100 RLU | 26200 RLU |  |  | 
7 | B7 | 1.4e+07 RLU | 26.9 nM | 640 RLU | 1840 RLU |  |  |  | 
8 | B8 | 1.82e+07 RLU | 3.27 nM | 560 RLU | 1360 RLU |  |  |  | 
9 | B9 | 1.43e+07 RLU | 17 nM | 400 RLU | 1440 RLU |  |  |  | 
10 | B10 | 2.08e+06 RLU | 184 nM | 640 RLU | 1360 RLU |  |  |  | 
11 | B11 | 1.67e+07 RLU | 12.4 nM | 400 RLU | 1040 RLU |  |  |  | 
12 | B12 |  |  |  |  |  | 320 RLU | 1.34e+06 RLU | 320 RLU
13 | B13 | 8.12e+06 RLU | 1.21 nM | 480 RLU | 1520 RLU |  |  |  | 
14 | B14 | 5.18e+06 RLU | 27.5 nM | 560 RLU | 1360 RLU |  |  |  | 
15 | B15 | 1.28e+07 RLU | 10.6 nM | 640 RLU | 1200 RLU |  |  |  | 
16 | B16 | 1.26e+07 RLU | 279 nM | 480 RLU | 1680 RLU |  |  |  | 
17 | B17 | 1.27e+07 RLU | 7.34 nM | 400 RLU | 1200 RLU |  |  |  | 
18 | B18 | 2.15e+06 RLU | 606 nM | 480 RLU | 1040 RLU |  |  |  | 
19 | B19 | 5.74e+06 RLU | 13.9 nM | 480 RLU | 960 RLU |  |  |  | 
20 | B20 | 5.89e+06 RLU | 10.5 nM | 960 RLU | 2240 RLU |  |  |  | 
21 | B21 | 4.71e+06 RLU | 218 nM | 560 RLU | 1600 RLU |  |  |  | 
